Results from a protein production outcome set (Wang et al. 2014).

Assay: label from the status in PepcDB records

Sequence	protein production
MTLTALNAISPIDGRYVNKTRALSPYFSEFALTYYRLMVEIKWFESLAANDTIPEVPALDNKARKFLSDLISNFNESEAEKIKEFEKQTNHDVKAVEYYLQDKFQENEQLKSCVAFIHFACTSEDINNLAYALMIKQAIAQVIQPTIAEIMGSITLLGKQHADVAMLSRTHGQPATPTTMGKELVNFVARLKRPQQQLAEVLIPAKFNGAVGNYNAHVAAYPEVDWRKHCANFVTSLGLSFNAYTTQIEPHDGIAEVSQIMVRINNILLDYTQDIWSYISLGYFKQKTIAEEVGSSTMPHKVNPIDFENAEGNLGLSNALFIHFANKLTQSRMQRDLSDSTVLRNLGVAFSYSLIAYHSVAKGNDKLQINKSALQKDLSENWEVLAEAIQTVMRRYNEPNAYEQLKELTRGQMIDAENLKKFIKTLSIPEEAKAELMKLTPETYTGLATQLVKAFS	not failed
MTLTQQKVKFFSKAYHDVKRLYLSAFPPRERFPYFCLLLNSLRSLVTCYAYYDKERFVGFAYIIESKEQVFILFLAVNGSVRSKGYGSMILAQIREYAGRKPLILTIEPVEKDSPNSEQRRQRLSFYERNGYQLTSHYYYEGQERYQILTTEQSIDLERFQKLVKRAVLGLVLITV	failed
MTLWSVASVLTLAFIFWLNAVMTASPYIVYLSGLKKQSERKNRLVALLLLLASLLYFFLKVGSFAAEGFAGMIDTTYMQFIWTGPVGLFIQLQIAVAIAWIVYSVVKLKRIKWVLYVVAIGLMGWSFLSIGHGSDAVWWGKLALLTHLLVAWVWFGSLNSLRKLATSVPLAKAKAIMERFGVHMSAAVPILLIAGLVMYRSATGRWMPELPLTSYDTVLLAKLVFVALILLVAALHKLKFVPQLNDNAAAKRLKNSITAEMVLAVTIFILASALSSAFSPG	failed
MTLYKQLVAGMIAVFILLLISVFTIEFNTTRNSLEQQQRSEVNNTINTVGLALAPYLEKKDTIAVESVINALFDGSSYSIVRLIFLDDGTEILRSYPIQPNNVPAWFTQLNLFEPIHDRRVVTSGWMQLAEVEIVSHPGAAYAQLWKALIRLSIAFLAILVIGMFAVAFILKRSLRPLQLIVNKMEQVANNQFGEPLPRPNTRDLIYVVDGINKMSEQVEKAFKAQAKEAQQLRERAYLDPVSHLGNRAYYMSQLSGWLSESGIGGVAILQAEFIKELYEEKGYEAGDGMVRELADRLKNSITIKDISIARISTYEFGIIMPNMDETELKIVAESIITCVDDINPDPTGMAKANLSLGVVSNKRQSSTTTLLSLLDNALLKRNPILS	failed
MTMSPSQDQTENTDMLTEIAILYYQEGATQEEISKKFGLSRAKVGRMLRKAREEGIVEITVKFHPVYSVQLEQKLVEKFNLKRALISLDQPNTNEQRKQVAALVSSYLNNNLQEGMAVAVGQGQNVAAVADHAGIVTQRNARFVSAIGGTHRSGDIINADHICRRLAKKYGGSSETLYAPAYVNDPSLRSAFMEHATIKETLSQARKAEFALVGIGDMDENSHMVKLGFFTPKEFVEARLNDGIVGDIGGFDFFKLDGTDADTLMRGRVIGLEMEDLRQIPNVVAMASESRKALSIMGALRTGVIDVLATSVSCAMALLNLAENEE	not failed
MTNERVMQLIREAYEKNLTTLDLSENQLTQLPSEITELKNLTTLNLSGNQLTQLPSEIGELKSLTSFDLSVNQLTQLPPEIGELKNLTILNVYRNQLIQLLPEITELKNLTTLDLSLNKLTQLPPLEHHHHHH	failed
MTNLGDLEIFARVVSTGSMSAAGRALGFSAAVISKRIKRLEDRLGARLLQRTTRQISLTEAGQGFYDRVLGILAGLEEAEAYASGRSSQVQGTLRISAPTSFGRMHIAPHLTGFMKDHPDLKLHIVLTDDFTDIVAEGFDLAIRIGELSDSSLVARKLAPVRRLLCAAPSYVARHGAPTEIGELAKHICLPAHNNDNWKLEGPDGSLSYRPEGPLVTNSSEIIREAVIAGAGIALRSTWDIGRELREGRLVQVLPQWEGSHKLTLSAVYPSRQFLPAKVRQFIDYLAALYGPVPYWEQ	failed
MTNLISGSSYPTANLYFMQVWKIECWLRAHEFSVDETICQMVEIMTLKFEKYWEEYSDILAIAAVFDPRLKLKCLEYCFSTLDRLTSKSRLAHVRSKIYKLFKAYKKRPSSITSSSQVETLEEDIPAGYSGFYAFVSQKVGSSGKSELDIYLGEPTLDMAAFRHFNVLAYWKDNSCRFKELSSMACDVLSIPITTVASESSFSIGSGVLSKYRSSLLPENIQALICTRNWLRGFPKEGEEEEVEEEKEEEKEEEKEEA	failed
MTNNPLGRIIPQQPPIEPQSDAHVLKSRLEWGEPAFTILDVRDRSTYNDGHIMGAMAMPIEDLVDRASSSLEKSRDIYVYGAGDEQTSQAVNLLRSAGFEHVSELKGGLAAWKAIGGPTEGIIESRTPAGADDYNVVSRMQNHLENQKKEV	failed
MTNTPRQGATLAVLIDADNAAPAIVEGLLAEVAKYGVAAVKRIYGDWTRPNLSGWKDRLLAHSIQPIQQFRYTVGKNATDSAMIIDAMDLLYTGRFDGFCIVSSDSDFTRLASRIREQGLTVYGFGERKTPKPFVTACDKFIYSDVLRADADSDSDSETGSAPARKRTTQELRQDSRLVRLLQSASQAVSDEDGWSTLGGIGNYIAKQAPEFDSRNYGYGKLSELVTATNLFEVETRNGGNNKTLWVRLKKRNKGEGGGQPQPAQPQQQQQPQQQGQSSQPSQSQQPSQQAQPQQQRPAPAPARPVQPAPEPVAVIPATEPARVTEEEDDDAAGSASTLIQEAVEVSTERPKAGGKRGKRPDVTLSDTPWPIDQSVFSAPGATVLSAQVDVPEETKAAAPAEEAKKPAKKKPAAKKAAPRKRAPAKKAAAAE	failed
MTNVRVIKPALAALVAAAACVGGLAFSSAQPAQADTYSDLINAQNQHAASVQREAELKQQLAGASQDLANKVLELDDLTNNKIVAAQAKVTQANEDAATAQDEADAASGRLSAAQKDKETLEEQIKQTGKDYDDAHAAVAQLARDEMHGSNASDVMSVVTGATSTQDFVNSMQSRDALSRNEANAASSAATSLSTSKNRGERLAAIEKQIAVLKTQSDEKAASAQTAAETAQSERDALDKLRQEGETRRNELSSMVDSLDSQSAKQAAQTVLIASQVDSYNRQFQKEQQDAANRVDTGNQGGTPSTPVTPAPAPAPAPAPAPAPAPAPAPSVGGQGTSNGDYGNAYAAGQCTYWAYERRRQMGIGTPSYLGNGGFWWRSAPAYGLRVDHTPQVGAALSFLPGQDGADGTYGHVAVVEAVYGDGTFQISEMNWGGPWNMHYRTLTNLGQYWFVH	failed
MTPAAHPPRAAIADIAGHLPEQVLTNDVLAQLYPDWPAEKILAKTGIRERRIAAPRETAADLAYEAARKLFAQGAVGADQVDFVILCTQAPDYVLPTSACMLQHRLGIPTHAGALDVNLGCSGYVYGLSLAKGLVETGAARCVLLLTADTYSKYLHPLDKSVRTLFGDGASATAVIAEHGELERIGPFVFGTDGRGAPNLIVKAGLFREPKSADSAREHEDASGNVRTDEHLYMNGAEVMAFSLAEVPRAADRLLALAGEPRENIDCFVLHQANRFMLDALRKKMKIPEHKFPVLMEHCGNTVSSTLPLALETMRANGTLARGMRLMLLGFGVGYSWAGCLVNF	not failed
MTPDFQIVTQRLQLRLITADEAEELVQCIRQSQTLHQWVDWCHALFSQQEAEQFIQATRLNWVKAEAYGFGVFERQTQTLVGMVAINEFYHTFNMASLGYWIGDRYQRQGYGKEALTALILFCFERLELTRLEIVCDPENVPSQALALRCGANREQLAPNRFLYAGEPKAGIVFSLIP	not failed
MTPDSSVYKALLESTKAIPWKINWQTMAFEYIGPQIEALLGWPQGSWKSVEDWATRMHPEDQEWVVNFCVKQSECGVDHEADYRALHRDGHYVWIRDVVHVVRDDSGEVEALIGFMFDISLEHHHHHH	not failed
MTPEAAYQNLLEFQRETAYLASLGALAAWDQRTMIPKKGHEHRARQMAALARLLHQRMTDPRIGEWLEKVEGSPLVQDPLSDAAVNVREWRQAYERARAIPERLAVELAQAESEAESFWEEARPRDDWRGFLPYLKRVYALTKEKAEVLFALPPAPGDPPYGELYDALLDGYEPGMRARELLPLFAELKEGLKGLLDRILGSGKRPDTSILHRPYPVEAQRRFALELLSACGYDLEAGRLDPTAHPFEIAIGPGDVRITTRYYEDFFNAGIFGTLHEMGHALYEQGLPKEHWGTPRGDAVSLGVHESQSRTWENLVGRSLGFWERFFPRAREVFASLGDVSLEDFHFAVNAVEPSLIRVEADEVTYNLHILVRLELELALFRGELSPEDLPEAWAEKYRDHLGVAPKDYKDGVMQDVHWAGGLFGYFPTYTLGNLYAAQFFQKAEAELGPLEPRFARGEFQPFLDWTRARIHAEGSRFRPRVLVERVTGEAPSARPFLAYLEKKYAALYG	not failed
MTPEIAIGLVTALGLGALVGLERQWRQRSSGMATHAMVALGAASFSILPLLLDNEVSVTRMAAQVVSGIGFLGAGVIMRDGLSVRGLSTAASIWSTGAIGVLAGSGFILAACMTTALIVIANLFLPALGRVVDRHTSGEAEQERFYQISVSCEARNEALVRMQLLQRMGDNRLNLQSLESHALKGSGNVEVNAVVFTLHKEDSLVEQMVGELCLAPQVTAASWVMNPAAE	failed
MTPGGLFLPYHSLPQPDFLASCPTRHLKLCQCPGILAENPHQFSPTFPPGKGSCQHGALPGQVSLKEAAHTEMSLSGQDLFPSPAHPPLQPFWLPFSLCLSTPFLVADNELRLPKGQICPLHVFVLANRVVLKLCANSVWEHSKGIT	failed
MTPGTIFLSSQVLMPSEDDTKRFHLAEGQELFYLERVRTADGQPIVYCIDKIPMNILPNSFSHQQESMFDLLEKNSGSVISYAVTDIEPIGYHDTISPVLECDPETALLLLKQTHYDQHDKPVLYSLNYFRA	not failed
MTPIHVVGIGLDGLPGLAAAVQQIIDSATLLVGSDRHLQLIPQGDTPRLSLGNFNASLKAIQTHLDTTANPQVVILTSGDPLFYGLGRWLLEVFAPDQLTFHPHLSAVQLAFSRLKLPWQDAVIYSAHGRDLAGLVPLLQRGVEKIAIYTDGEANIAAISRLYQALHIPVTYRAWVCQALGSAEEAILPWDLAQPVTALPPVHPLNLVVLLRQPQRLPPREQPIVGLGDDQFFTFADRPSLMTKREVRVLVLAELALTSTVEIVWDIGAGTGSVAVEIARLAPQATIYAIEKTAIGFQLIERNRRAFGLANLIPLQGTAPQCLRDLPPPDRVFIGGSGAQLLANLDYCWSHLNAGGRLVLAIATLEHQGQVLHWCQTHQINPQVLQVQLSRSVP	failed
MTPLPPRPGPGARLARPAAAVLLVAAIGALAAFAPGPATRALESLRQSAPAAAAALAAAYVASGPLMIPAPLLHLAAGFALGPVSGSLVAIPASTLGACAAFAAGRWLVRERAARLAARSPALAGVDAALAASGFRVVLLLRLAPLAPFTVLNYLLGATPVPLRAFALASLLGSVPGLILSVYVGSLAADAAALRATVDAGRGGPGALILPAIGTGAILLAISWVLRRALAASAGARPPPA	failed
MTPNRRPRPSGAEVRRKIRGPDGLALLPSGRVSWLPDDFVHPVLVPLPGGDHHLRPIRETDTPLDYPAVMGSRERLWTVYGPAWGWPAATMTYEADRADLLRHEKEIAAHQSFNYALFDTAETALLGCVYIDPPERAGADGDISWWVVDELVDSTVERALDALVPQWIAADWPFERPRFIGREISWSDYLALPGIPTVP	failed
MTPPPAPKTPSTLLRRHLGRAVGAAYLAAATAPGPGMWLRHPHRIAVVGLPDLSLNTAPFLLSLVLFTAGLQVPPRDLGRLVGRPAALLTGLALHLLAPLLIVPGVAFALRQSPDSDGGSGLVAAMILVVAMPVAAGATVWTGAGEGDQSTTVGLVLASTLASPLTVPFTVTALCPLLSADYADTLAGAARIAGSGFALTGVVLPCAAGLVARLALPRRALDALLHAAVPTAALGSLLLTYVNASGVLGPFLTRPRPVLLAAALAVAATVCGLSFALGRITARVLRLDAHAGASVTLACGMNNSSASAVLITTALPDRPQVLLPVLAYGLLQKVAAGRVVRGGHHSGRGA	failed
MTPQSDTPKVTGLKLKRKSRQLEISFDNGQQFTLSCELLRVYSPSAEVHGHGNPVLVTHKKNVNINAITPVGNYAVKLVFDDGHDTGLYSWKVLYDLASNQVDLWENYLARLRAAKASREPLIDMAVKYHT	not failed
